According to patent CN116510007A:

Target: 人IL-11Rα (全长基因, stably expressed on STAT3-luc HEK293 cells) (human) (UniProt Q14626)
Test: cell-based or functional assay

Chain of UniProt Q14626 (Q14626 23-422): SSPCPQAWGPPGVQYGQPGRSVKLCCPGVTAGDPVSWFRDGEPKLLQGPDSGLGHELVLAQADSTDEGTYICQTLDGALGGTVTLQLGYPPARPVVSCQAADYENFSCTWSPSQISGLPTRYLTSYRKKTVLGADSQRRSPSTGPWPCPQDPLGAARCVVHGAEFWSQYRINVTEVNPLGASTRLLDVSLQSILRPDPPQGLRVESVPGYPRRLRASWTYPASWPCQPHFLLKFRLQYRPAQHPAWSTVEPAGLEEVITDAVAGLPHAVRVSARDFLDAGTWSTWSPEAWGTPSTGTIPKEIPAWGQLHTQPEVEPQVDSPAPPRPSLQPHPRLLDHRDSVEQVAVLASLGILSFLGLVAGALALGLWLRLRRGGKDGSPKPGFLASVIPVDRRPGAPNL

IL-11刺激STAT3报告基因转录表达的EC50: 0.11 ng/mL
Substance: IL-11 (ligand)
